B1: TPR t1 (parent)
chain: GACCAAUCUGCCCUCAGAGCUCGAGAACAUCUUCGGAUGCAGAGGAGGCAGGCUUCGGUGGCGCGAUAGCGCCAACGUCCUCAACCUCCAAUGCAUCCCACCACAUGAUGAUGCCUGAAGAGCCUUGGUUUUUUG

Variants of: B1
Assay: polymerase ribozyme fitness, log enrichment relative to wild type (log ratio); higher = more active; in vitro selection for triplet polymerase activity
Procedure, shortened: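 Mutant libraries for each subunit of a heterodimeric triplet polymerase ribozyme were made by PCR and then transcribed. Each library underwent one round of in vitro selection in triplicate: annealing with a biotinylated primer, the partner subunit and triplets, frozen incubation at −7 °C, gel excision of extended constructs, streptavidin-bead capture and RT-PCR. Input and output libraries were Illumina-sequenced, and only genotypes with ≥10 input reads and ≥1 read per output were kept. Fitness is the logarithm, base 2, of genotype enrichment over wild-type enrichment, computed from inverse-variance-weighted replicate averages.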

Variant | polymerase ribozyme fitness (log ratio)
GACCAAUCUGCCCUCAGAGCUCGAGAACAUCUUCGGAUGCAGAGGAGGCAGGCUUCGGUGGCCCGAUAGCGCUAACGUCCUCAACCUCCAAUGCAUCCCACCACAUGAUGAUGCCUGAAGAGCCUUGGUUUUUUG | -0.69
GACCAAUCUGCCCUCAGAGCUCGAGAACAUCUUCGGAUGCAGAGGAGGCAGGCUUCGGUGGCACGAUAGCGCCAACGUCCUCAACCUCCAAUGCAUCCCACCACAUGAUGAUGCCUGAAGAGCCUUGGAUUUUUG | -1.64
GACCAAUCUGCCCUCAGAGCUCGAGAACAUCUUCGGAUGCAGAGGAGGCAGGCUUCGGUGGCACGAUAGCGCCAACGUCCUCAACCUCCAAUGCAUCCCACCACAUGAUGAUGCCUGAAGAGCCUAGGUUUUUUG | -2.47
GACCAAUCUGCCCUCAGAGCUCGAGAACAUCUUCGGAUGCAGAGGAGGCAGGCUUCGGUGGCCCGAUAGCGCCAUCGUCCUCAACCUCCAAUGCAUCCCACCACAUGAUGAUGCCUGAAGAGCCUUGGUUUUUUG | -0.329
GACCAAUCUGCCCUCAGAGCUCGAGAACAUCUUCGGAUGCAGAGGAGGCAGGCUUCGGUGGCCCGAUAGCGCCAACGUCCUCAACCUCAAAUGCAUCCCACCACAUGAUGAUGCCGGAAGAGCCUUGGUUUUUUG | -4.71
GACCAAUCUGCCCUCAGAGCUCGAGAACAUCUUCGGAUGCAGAGGAGGCAGGCUUCGGUGGCCCGAUAGCGCCAAAGUCCUCAACCUCCACUGCAUCCCCCCACAUGAUGAUGCGUGAAGAGACUUGGUUUUUUG | -4.91
GACCAAUCUGCCCUCAGAGCUCGAGAACAUCUUCGGAUGCAGAGGAGGCAGGCUUCGGUGGCCCGAUAGCGCCAACGUCCUCAACCUACAAUGAAUCCCACCACAUGAUGAUGCCUGAAGAGCCUUGGUUUUUUG | -2.47
GACCAAUCUGCCCUCAGAGCUCGAGAACAUCUUCGGAUGCAGAGGAGGCAGGCUUCGGUGGCCCGAUAGCGCCAACGUCCUCAACCUGCAAUGCAUCCCACCACAUGAUGAUGCCUGAAGAGCCUUGGUUUUUUG | -1.3
GACCAAUCUGCCCUCAGAGCUCGAGAACAUCUUCGGAUGCAGAGGAGGCAGGCUUCGGUGGCCCGAUAGCGACAACGUGCUCAACCUCCAAUGCAUCCCACCACAUGAUGAUGCCUGAAGAGCCUUGGUUUUUUG | -5.56
GACCAAUCUGCCCUCAGAGCUCGAGAACAUCUUCGGAUGCAGAGGAGGCAGGCUUCGGUGGCACGAUAGCGCCAACGUCCUCAACCUCCAAUGCAUCCCACCACAUGAUGAUGCCUGAAGAGCCUUGGUUUUGUG | -1.23
GACCAAUCUGCCCUCAGAGCUCGAGAACAUCUUCGGAUGCAGAGGAGGCAGGCUUCGGUGGCCCGAUAGCGCCAACGUCCUCAACCUCCAAUGCAUCCCACCACAUGAUGCUGCCUGAAGAGCCUUGGUUUUUUG | -0.587
GACCAAUCUGCCCUCAGAGCUCGAGAACAUCUUCGGAUGCAGAGGAGGCAGGCUUCGGUGGCCCGAUAGCGCCAACGUCCUCAACCUCCAUUGCAUCCCACCACAUGAUGAUGCCUGAAGAGCCUUGGUUUUUUG | -2.7
GACCAAUCUGCCCUCAGAGCUCGAGAACAUCUUCGGAUGCAGAGGAGGCAGGCUUCGGUGGCCCGAUAGCGCCAACGUUCUCAACCUCCAAUGCAUCCCACCACAUGAUGAUGCCUGAAGAGCCUUGGCUUUUUG | -0.807
GACCAAUCUGCCCUCAGAGCUCGAGAACAUCUUCGGAUGCAGAGGAGGCAGGCUUCGGUGGCCCGAUAGCGCCAACGUCCUCAACUUCCAAUGCAUCCCACCACAUGAUGAUGCCUGAAAAGCCUUGGUUUUUUG | -0.703
GACCAAUCUGCCCUCAGAGCUCGAGAACAUCUUCGGAUGCAGAGGAGGCAGGCUUCGGUGGCCCGAUAGCGCCAACGUCCUCAACCUCCAGUGCAUCCCACCACAUGAUGAUACCUGAAGAGCCUUGGUUUUUUG | -2.9
GACCAAUCUGCCCUCAGAGCUCGAGAACAUCUUCGGAUGCAGAGGAGGCAGGCUUCGGUGGCCCGAUAGCGCGAACGUCCUCAACCUCCAAUGCAUCCCACCACAUGAUGAUGCGUGAAGAGCCUUGGUUUUUUG | -5.56
GACCAAUCUGCCCUCAGAGCUCGAGAACAUCUUCGGAUGCAGAGGAGGCAGGCUUCGGUGGCCCGAUAGCGCCAACGUCCUCAACCUCCAAUGCAUCCCACCGCAUGAUGAUGCCUGAAGAGCCUUGGUUUUUUG | -5.66
GACCAAUCUGCCCUCAGAGCUCGAGAACAUCUUCGGAUGCAGAGGAGGCAGGCUUCGGUGGCACGAUAGCGCCAACGUCCUCAACCUCCAAUGCAUCCCACCACAUGAUGAAGCCUGAAGAGCCUUGGUUUUUUG | -0.0284
GACCAAUCUGCCCUCAGAGCUCGAGAACAUCUUCGGAUGCAGAGGAGGCAGGCUUCGGUGGCCCGAUAGCGCCAACGUGCUCAACCUCCAAUGCAUCCCACCACAUGAUGAUGCCUGAAGAGUGUUGGUUUUUUG | 0.0911
GACCAAUCUGCCCUCAGAGCUCGAGAACAUCUUCGGAUGCAGAGGAGGCAGGCUUCGGUGGCCCGAUAGCGCCAACGUCCUCAACCUCCAAUGCAUCCCACCACGUGAUGAUGCCUGAACAGCCUUGGUUUUUUG | -2.96
GACCAAUCUGCCCUCAGAGCUCGAGAACAUCUUCGGAUGCAGAGGAGGCAGGCUUCGGUGGCCCGAUAGCGCCAACGUCGUCAACCUCCAAUGCAUCCCACCACAUGAUGAUGCCUGAAGAGCCUUGGUUUUUUG | -6.96

Reference: the RNAGym collection of RNA variant scans (doi:10.1073/pnas.2313332121)
